Among the data in article PMC10578477, “Biochemical and genetic dissection of the RNA-binding surface of the FinO domain of Escherichia coli ProQ” are Kd and binding signal values, retold here.

By Kd is commonly meant the constant that tells how readily two partners part at equilibrium.

The target of series [1] is T1, ProQ NTD WT (FinO domain) (Escherichia coli, UniProt P45577 1-130).
T1 sequence: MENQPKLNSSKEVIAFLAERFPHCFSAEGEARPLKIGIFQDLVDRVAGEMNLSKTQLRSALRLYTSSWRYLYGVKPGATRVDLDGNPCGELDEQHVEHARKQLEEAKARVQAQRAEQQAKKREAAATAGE
The series is described as follows: EMSA. Conditions: EMSA: 25 mM Tris pH 7.5, 150 mM NaCl, 5% glycerol, 1 mM MgCl2, 1 nM 32P-RNA, 30 min RT; microplates pretreated with 0.0025% BSA; 6% gel in 0.5x TBE at 4 C.

Series [2] has as its target T1, ProQ NTD WT (FinO domain). The series is described as follows: EMSA; EMSA: 25 mM Tris pH 7.5, 150 mM NaCl, 5% glycerol, 1 mM MgCl2, 1 nM 32P-RNA, 30 min RT; microplates pretreated with 0.0025% BSA; 6% gel in 0.5x TBE at 4 C. Conditions: protein: recombinant, tags: His6-TEV removed, N-terminal Ser remains, label: 5'-32P. (Mobility shift assays separate free from complexed probe on a gel.)

For series [3], the target named is T1, ProQ NTD WT (FinO domain). The series is described as follows: EMSA; range for five RNAs; EMSA: 25 mM Tris pH 7.5, 150 mM NaCl, 5% glycerol, 1 mM MgCl2, 1 nM 32P-RNA, 30 min RT; microplates pretreated with 0.0025% BSA; 6% gel in 0.5x TBE at 4 C. Conditions: protein: recombinant; tags: His6-TEV removed, N-terminal Ser remains; label: 5'-32P; terminator hairpin, 8 U 3' tail.

RybB: the equilibrium dissociation constant (Kd) in series [1] was found to be 26 nM.

As for gapA-3', the Kd in series [1] is 14 nM.

B1: cspE-mini-3'-6U (structured_RNA)
RNA: GGAAUUCGGAAGGCGCUUAAUCAGCGCCUUUUUU
With B1, the binding signal in series [2] (hairpin, 6 U tail (2 predicted single-stranded)) was ~2.5 fold weaker Kd than cspE-mini.

B2: cspE-3' (structured_RNA)
RNA: GUAAGAUACGUCAGCAAGAAUUCAAAACCCGCUUAAUCAGCGGGUUUUUUUU
On to B2, for which the Kd in series [3] is around 6.33 nM.

B3: cspE-mini (structured_RNA)
RNA: GGAAUUCGGAAGGCGCUUAAUCAGCGCCUUUUUUUU
As to B3, the binding signal in series [2] (hairpin with 5' and 3' single-stranded regions) was ~1 fold weaker Kd than cspE-3'.
